Assay results taken from the supplement of paper PMC12042874.
± gives the uncertainty stated by the source.

Experiment: amyloid nucleation score (Sup35N fusion, yeast selection) (log enrichment); library NNK2; higher = more nucleation; inactive = no reads after selection
Summary of the method: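 Libraries of peptides of 20 random codons fused to Sup35N were expressed in psi-negative yeast and induced 24 hours with 100 μM copper sulfate. Selection was 7 days at 30°C on medium lacking adenine and uracil, and plasmid inserts were Illumina-sequenced before and after selection. Nucleation score is the DiMSum log enrichment of output over input reads, centred on the mode score of non-aggregating sequences, and sequences with under 100 input reads were left out.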

| Substance | amyloid nucleation score |
| --- | --- |
| ITLLGKVLSGVVKPSYPLAA | inactive |
| ISIFFVMLLMYRMFGYVECA | 0.856 ± 0.5 |
| WYISARPYVFCYDMQRSLRL | -0.505 ± 1.1 |
| GTTDTCSAV | 3.2 ± 0.093 |
| SVLKYS | -0.334 ± 0.63 |
| AERLRVISGWAAWYAIDTRF | 3.82 ± 0.11 |
| IPFIRMFVSFNNLQSISIPD | 5.534 ± 0.033 |
| GVLDRFPDESNILGVSFSCL | -0.575 ± 0.26 |
| YFSSTYLRQGIFWCFRMSRL | -0.43 ± 1.1 |
| ELWLYFFL | -1.07 ± 0.34 |
| HSLKNYSGYLLLRTNRCI | 0.135 ± 0.65 |
| MIIVTAY | -0.073 ± 0.49 |
| YERVRRSVYSSMFFSLFNTR | -0.357 ± 1.1 |
| SIGNIVVLVEERSVRQPTLF | 2.79 ± 0.14 |
| VNLLLMVWRGLLLARTGRSG | 1.96 ± 0.11 |
| TVYAIP | -0.322 ± 0.65 |
| MNRYSKIVSQFVLAVDSTYF | 0.433 ± 0.74 |
| RWATVLLDPF | -0.299 ± 0.79 |
| QRLYPFYCIGYYITMYVVHC | 2.45 ± 0.13 |
| RDQFTISETRNAVDMDWKSK | 0.007 ± 1.1 |
| KLLFLLVVVLADQMSCLGTS | 1.1 ± 0.36 |
| VMDCLMLSNMHLYIVLESKS | 5.08 ± 0.061 |

| Substance | amyloid nucleation score |
| --- | --- |
| VVEVCC | -0.368 ± 0.27 |
| IFSLDFSGYVSLYLQKMNVL | 0.815 ± 0.15 |
| MRCWFTFVWCVIYY | inactive |
| SFIVRQGPTHKFVSECS | -0.887 ± 0.54 |
| QGIRALRLYKFLTTSLILLI | -1.42 ± 1.1 |
| LVALK | 1.08 ± 0.51 |
| LSMVYYATFDGF | -1.01 ± 1.1 |
| CKKEVL | inactive |
| LSRFNFSNVLLRRNMSARA | -1.78 ± 0.62 |
| KFRDVFFPY | -0.76 ± 0.55 |
| WGHLFRSPSRSSRFYRVLPA | -0.159 ± 1.1 |
| NFAVLYYIFVHIWLQCSNSE | -0.969 ± 0.41 |
| TSLFI | 0.487 ± 0.6 |
| LRHCVYVYSATSRWIC | 0.674 ± 0.43 |
| RVDARERNELDGIYFIVGSS | -0.271 ± 1 |
| KGIDKPIEGPSSKHLRFNCY | 0.071 ± 0.65 |
| KIKYYEAIDGACNSGWFDLG | 2.92 ± 0.057 |
| RDSTVFKIYCWPYNN | 6.493 ± 0.05 |
| FFMNNALFRGWG | 2.97 ± 0.15 |
| CRWTASAIHARGRVSDRMRD | 0.05 ± 0.29 |
| FYIGILGDLWWRRR | 1.15 ± 0.57 |
| NLQLVGVMNPDPCESWN | 0.222 ± 0.31 |

| Substance | amyloid nucleation score |
| --- | --- |
| GVDDARTTKAGNWYSVRKGQ | 1.64 ± 0.41 |
| ACGPQPETLSGLMSRGLLRR | 0.619 ± 0.64 |
| DFGREVVVIPLSEV | 0.323 ± 0.53 |
| PCRVYHLCNYKLAWRKGGWL | 0.927 ± 0.2 |
| YGLAFTEDATFFKVCTY | -0.211 ± 0.8 |
| FCRLLPSLCTTNLK | -0.663 ± 0.76 |
| MMGVCF | -0.916 ± 1.1 |
| DSSVSAPMSSFDRWTTHCVL | 0.373 ± 0.43 |
| HMEAFWCWFYGNVAFNRFCV | -0.305 ± 1 |
| KDGSFSPISL | -0.116 ± 0.35 |
| SAYDSTCRFISGFL | -1.68 ± 1 |
| LAVLGIYDTLLYCHTVLYEI | -0.302 ± 0.36 |
| SGNGLLMCPMGSRTGRLFHR | 3.54 ± 0.061 |
| FSVMMLMAVLMGTKIGVTEN | 4.19 ± 0.087 |
| VYISSSFDFWMFVNFIDDTL | -0.511 ± 0.43 |
| SKPWKYNRFYLESSEWSSFC | 1.47 ± 0.3 |
| RQVAPMHLYIYSACNGAKNR | 7.095 ± 0.062 |
| IFAHSPLYMCGYADVYVHPT | inactive |
| VDTSYITCITRLSPYIKVVL | -0.477 ± 0.79 |
| HLHGCIAMCASSSLIAGCTE | -0.603 ± 0.78 |
| YMYLTCSLGSVCRFLSEHMW | -0.605 ± 0.36 |
| VRTLGGL | -0.653 ± 0.33 |

| Substance | amyloid nucleation score |
| --- | --- |
| LPHCL | 1.36 ± 0.24 |
| CCFCFDNLIIPRDCYANSDN | 6.734 ± 0.03 |
| KVFNSLASYSSIDLWCVVAG | inactive |
| AEYSSAKGFD | -0.794 ± 0.55 |
| ILVREHFVSIKFLSR | -1.21 ± 1.1 |
| SRTWAARNFLFRWVSPANFT | 0.119 ± 0.74 |
| TQFISFRYYHNVDEIHYVVN | inactive |
| IFVCNMFVSYNSGNSGWCSV | 7.675 ± 0.042 |
| TYCILPLRVRMWTSTTLCQV | 4.59 ± 0.055 |
| IRQAWLYS | 0.615 ± 0.13 |
| FFIQLSIPERFTVRVLIRRR | inactive |
| CKSLLVKC | inactive |
| ADLCHTGRGSMRPCETED | inactive |
| FRRVLCYKYYSFA | 2.42 ± 0.14 |
| LMSQGCRGRLLL | -0.356 ± 0.64 |
| LRIQCMMTLVWYSTPQSCNT | 5.56 ± 0.066 |
| MGLMNCSYSVKKQAAVIRTD | 0.06 ± 0.17 |
| FCRGIHVTSIITTIDWYYSL | 0.36 ± 0.62 |
| QVIDTSPRHVMVIYVP | -0.307 ± 0.76 |
| FVYNLTKTGLCYAQSVKYHN | -0.483 ± 0.39 |
